The values below come from publication PMC5114850.

In this assay the target is recombinant human calmodulin (human), P0DP23. Put plainly: ITC. Particulars: remark: other sources report otherwise.

As a reminder, the Kd is the equilibrium constant for the complex coming apart. Broadly, the stoichiometry N is a count of units in the complex or per binding partner. Ac-SQSHPVMKAFCGLLLQSS-NH2 [CaMBP1 peptide of zebrafish STRA6]: the Kd amounted to 1680 nM, the dH is -7.3 kcal/mol and the stoichiometry N amounted to 0.99 sites.
